{"source": "patent US9555076B2", "about": "“Neuregulin based methods and compositions for treating cardiovascular diseases” (Zensun (Shanghai) Science & Technology, Co., Ltd., priority 2002, dated 2017)", "molecules": {"B1": {"name": "rhNRG-1 β: Recombinant human neuregulin fragment of 61 amino acid (SEQ ID NO:4), 3 disulfide bonds, expressed in E. coli (protein, listed as Homo sapiens)", "chain": "SHLVKCAEKEKTFCVNGGECFMVKDLSNPSRYLCKCPNEFTGDRCQNYVMASFYKAEELYQ", "modifications": "disulfide (positions not given here)"}}, "key": {"Rhesus": {"tested_on": "Rhesus", "assay": "Rhesus long-term toxicity study, 3 weeks iv plus 3 weeks convalescence", "conditions": "7.5, 15, 75 μg/kg/d iv 3 weeks"}, "[1]": {"tested_on": "heart failure in rat caused by ligation of coronary artery", "assay": "Plasma renin-angiotensin-aldosterone radioimmunoassay", "format": "in vivo, SD rat", "procedure": "Carotid artery phlebotomy was carried out and plasma extracted according to the mandate of the reagent kit, frozen and stored at −20° C. Renin activity (PRA), angiotensin I (AI), angiotensin II (AII) and aldosterone (ALD) content were determined with immunoassay."}, "[2]": {"tested_on": "congestive heart failure caused by inferior vena cava constriction in dog", "assay": "Echocardiography (EF, FS, CO), inferior vena cava constriction (TIVCC) dog", "format": "in vivo, crossbred dog", "procedure": "[…] dosage level of 1, 3 and 10 μg/kg respectively of rhNRG-1 β was diluted with preparation buffer solution (vehicle) to needed concentration, intravenous injection once everyday for consecutive 5 days.\n3% pentobarbital sodium (30 mg/kg) was injected into the peripheral vein to anesthetize the dog, then trachea intubated. […] Bred for 1 week, echocardiography performed according to the amount of ascites, when EF reduced by about 20% or dilatation of the left heart by about 20%, stable low cardiac output congestive heart failure animal model was established. Then intravenous injection of the drug was carried out for consecutive 5 days.\n• Heart function index determination was carried out under anesthesia of the dog prior to the operation, prior to and 5-day after the drug administration. Major index included: • EF (Ejection Fraction): heart ejection fraction, i.e., ratio of difference between end diastolic volume of the ventricle (EDV) and end systolic volume of ventricle (ESV) and end diastolic volume of ventricle, being general index used for reflecting pumping function of ventricle; especially reflecting the systolic function; • FS: ventricular short axis shortening rate, being index reflecting contraction function of ventricle, • CO: cardiac output, i.e. blood volume ejected by the heart per minute. 6.3.3.2 Hemodynamic Index Determination"}, "[3]": {"conditions": "dose not given (n = 6), iv qd × 10"}, "[4]": {"conditions": "1 μg/kg group, prior to drug administration"}, "[5]": {"conditions": "1 μg/kg iv daily 5 days, after drug administration"}, "[6]": {"conditions": "3 μg/kg group, prior to drug administration"}, "[7]": {"conditions": "3 μg/kg iv daily 5 days, after drug administration"}, "[8]": {"conditions": "10 μg/kg group, prior to drug administration"}, "[9]": {"conditions": "10 μg/kg iv daily 5 days, after drug administration"}}, "note": "Values joined by “and” are separate entries in the source; they are usually repeats but may differ in a detail not shown here. Identical values can stand only once.", "data": [{"molecule": "B1", "values": [{"measurement": "animal death", "setting": "Rhesus", "value": "No animal death associated with the testing drug"}, {"measurement": "AI", "setting": "[1]; 5 μg/kg iv qd × 10", "value": 10.036, "unit": "ng/mL"}, {"measurement": "AII", "setting": "[1]; 5 μg/kg iv qd × 10", "value": 807.304, "unit": "pg/mL"}, {"measurement": "ALD", "setting": "[1]; 5 μg/kg iv qd × 10", "value": 1.472, "unit": "ng/mL"}, {"measurement": "PRA", "setting": "[1]; 5 μg/kg iv qd × 10", "value": 4.032, "unit": "ng/ml · h"}, {"measurement": "AI", "setting": "[1]; 10 μg/kg iv qd × 10", "value": "7.65 ± 1.40 ng/mL and 7.654 ng/mL"}, {"measurement": "AII", "setting": "[1]; 10 μg/kg iv qd × 10", "value": "468.58 ± 165.10 pg/mL and 468.583 pg/mL"}, {"measurement": "ALD", "setting": "[1]; 10 μg/kg iv qd × 10", "value": "1.26 ± 0.38 ng/mL and 1.264 ng/mL"}, {"measurement": "PRA", "setting": "[1]; 10 μg/kg iv qd × 10", "value": "1.075±1.50 ng/ml · h and 1.075 ng/ml · h"}, {"measurement": "AI", "setting": "[1]; 20 μg/kg iv qd × 10", "value": "7.40 ± 12.15 ng/mL and 7.400 ng/mL"}, {"measurement": "AII", "setting": "[1]; 20 μg/kg iv qd × 10", "value": "641.47 ± 283.86 pg/mL and 641.47 pg/mL"}, {"measurement": "ALD", "setting": "[1]; 20 μg/kg iv qd × 10", "value": "1.02 ± 0.27 ng/mL and 1.018 ng/mL"}, {"measurement": "PRA", "setting": "[1]; 20 μg/kg iv qd × 10", "value": "1.337±1.09 ng/ml · h and 1.337 ng/ml · h"}, {"measurement": "AI", "setting": "[1]; [3]", "value": 10.655, "unit": "ng/mL"}, {"measurement": "AII", "setting": "[1]; [3]", "value": 1366.38, "unit": "pg/mL"}, {"measurement": "ALD", "setting": "[1]; [3]", "value": 1.738, "unit": "ng/mL"}, {"measurement": "PRA", "setting": "[1]; [3]", "value": 3.506, "unit": "ng/ml · h"}, {"measurement": "CO", "setting": "[2]; 1 μg/kg group, preoperation", "value": "4.2 ± 0.6", "unit": "L/min"}, {"measurement": "EF", "setting": "[2]; 1 μg/kg group, preoperation", "value": "82.8 ± 3.0", "unit": "%"}, {"measurement": "FS", "setting": "[2]; 1 μg/kg group, preoperation", "value": "50.8 ± 4.0", "unit": "%"}, {"measurement": "CO", "setting": "[2]; [4]", "value": "2.4 ± 0.5", "unit": "L/min"}, {"measurement": "EF", "setting": "[2]; [4]", "value": "57.7±10.9", "unit": "%"}, {"measurement": "FS", "setting": "[2]; [4]", "value": "30.6±8.0", "unit": "%"}, {"measurement": "CO", "setting": "[2]; 1 μg/kg group, prior to drug administration, listed as rhNRG-1β", "value": "2.4 ± 0.5", "unit": "L/min"}, {"measurement": "CO", "setting": "[2]; [5]", "value": "3.7 ± 0.8", "unit": "L/min"}, {"measurement": "EF", "setting": "[2]; [5]", "value": "70.4±8.4", "unit": "%"}, {"measurement": "FS", "setting": "[2]; [5]", "value": "39.7±5.7", "unit": "%"}, {"measurement": "CO", "setting": "[2]; 1 μg/kg iv daily 5 days, after drug administration, listed as rhNRG-1β", "value": "3.7 ± 0.8", "unit": "L/min"}, {"measurement": "CO", "setting": "[2]; 3 μg/kg group, preoperation", "value": "4.3 ± 0.8", "unit": "L/min"}, {"measurement": "EF", "setting": "[2]; 3 μg/kg group, preoperation", "value": "84.7 ± 2.8", "unit": "%"}, {"measurement": "FS", "setting": "[2]; 3 μg/kg group, preoperation", "value": "51.7 ± 2.9", "unit": "%"}, {"measurement": "CO", "setting": "[2]; [6]", "value": "2.1 ± 0.7", "unit": "L/min"}, {"measurement": "EF", "setting": "[2]; [6]", "value": "58.0 ± 8.3", "unit": "%"}, {"measurement": "FS", "setting": "[2]; [6]", "value": "29.9 ± 6.4", "unit": "%"}, {"measurement": "CO", "setting": "[2]; [7]", "value": "4.0 ± 0.9", "unit": "L/min"}, {"measurement": "EF", "setting": "[2]; [7]", "value": "74.7 ± 4.6", "unit": "%"}, {"measurement": "FS", "setting": "[2]; [7]", "value": "42.4 ± 4.4", "unit": "%"}, {"measurement": "CO", "setting": "[2]; 10 μg/kg group, preoperation", "value": "4.3 ± 0.6", "unit": "L/min"}, {"measurement": "EF", "setting": "[2]; 10 μg/kg group, preoperation", "value": "82.9 ± 2.6", "unit": "%"}, {"measurement": "FS", "setting": "[2]; 10 μg/kg group, preoperation", "value": "50.5 ± 3.3", "unit": "%"}, {"measurement": "CO", "setting": "[2]; [8]", "value": "1.9 ± 0.3", "unit": "L/min"}, {"measurement": "EF", "setting": "[2]; [8]", "value": "55.8 ± 10.0", "unit": "%"}, {"measurement": "FS", "setting": "[2]; [8]", "value": "27.7 ± 5.6", "unit": "%"}, {"measurement": "CO", "setting": "[2]; [9]", "value": "3.6 ± 0.7", "unit": "L/min"}, {"measurement": "EF", "setting": "[2]; [9]", "value": "74.7 ± 3.2", "unit": "%"}, {"measurement": "FS", "setting": "[2]; [9]", "value": "41.5 ± 3.1", "unit": "%"}, {"measurement": "effect on heart rate", "setting": "[2]; 1, 3 and 10 μg/kg iv daily 5 days", "value": "less effect on heart rate"}]}]}
